T1: Saccharomyces cerevisiae Elp1 (Saccharomyces cerevisiae, UniProt Q06706 1-1349)
T1 construct: Elp1, S. cerevisiae, full-length ORF; also called ScElp1; source: S. cerevisiae DS1-2b, overexpressed, purified within ScElongator
T1 sequence (looked up): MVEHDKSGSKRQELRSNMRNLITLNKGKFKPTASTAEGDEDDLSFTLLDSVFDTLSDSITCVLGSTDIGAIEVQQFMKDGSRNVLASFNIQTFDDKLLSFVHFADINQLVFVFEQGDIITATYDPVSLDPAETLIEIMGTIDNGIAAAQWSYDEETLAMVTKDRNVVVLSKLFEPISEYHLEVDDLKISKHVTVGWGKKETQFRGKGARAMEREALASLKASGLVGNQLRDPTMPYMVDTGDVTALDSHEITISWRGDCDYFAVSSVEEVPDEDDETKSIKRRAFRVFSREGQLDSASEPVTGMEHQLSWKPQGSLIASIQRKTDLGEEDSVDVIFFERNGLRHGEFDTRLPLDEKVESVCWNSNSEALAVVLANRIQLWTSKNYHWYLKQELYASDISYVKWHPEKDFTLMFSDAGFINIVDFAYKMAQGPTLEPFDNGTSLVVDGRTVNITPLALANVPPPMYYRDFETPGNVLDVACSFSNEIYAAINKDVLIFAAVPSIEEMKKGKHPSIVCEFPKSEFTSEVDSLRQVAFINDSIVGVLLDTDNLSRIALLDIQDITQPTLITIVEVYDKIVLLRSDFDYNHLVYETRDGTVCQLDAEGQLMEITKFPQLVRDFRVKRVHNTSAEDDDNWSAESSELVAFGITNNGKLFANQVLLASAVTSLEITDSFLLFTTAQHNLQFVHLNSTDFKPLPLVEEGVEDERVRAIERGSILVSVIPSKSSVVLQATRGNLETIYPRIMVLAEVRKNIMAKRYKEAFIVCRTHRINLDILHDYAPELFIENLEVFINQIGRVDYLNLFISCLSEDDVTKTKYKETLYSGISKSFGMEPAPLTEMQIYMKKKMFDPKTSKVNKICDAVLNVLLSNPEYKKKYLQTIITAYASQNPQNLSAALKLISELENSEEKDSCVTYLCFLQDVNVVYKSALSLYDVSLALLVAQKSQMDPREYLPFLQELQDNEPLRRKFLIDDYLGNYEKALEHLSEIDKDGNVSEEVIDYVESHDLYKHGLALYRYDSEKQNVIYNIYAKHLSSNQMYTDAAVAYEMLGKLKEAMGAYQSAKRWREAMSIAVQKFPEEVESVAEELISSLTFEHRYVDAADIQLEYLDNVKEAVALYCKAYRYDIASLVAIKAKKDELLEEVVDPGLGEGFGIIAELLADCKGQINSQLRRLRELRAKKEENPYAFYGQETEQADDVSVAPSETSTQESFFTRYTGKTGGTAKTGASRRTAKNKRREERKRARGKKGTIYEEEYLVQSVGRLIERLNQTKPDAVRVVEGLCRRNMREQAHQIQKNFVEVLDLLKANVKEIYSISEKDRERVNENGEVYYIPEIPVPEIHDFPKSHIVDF

T2: Saccharomyces cerevisiae Elp3 (Saccharomyces cerevisiae, UniProt Q02908 1-557)
T2 construct: Elp3, S. cerevisiae, full-length ORF; also called ScElp3; source: S. cerevisiae DS1-2b, overexpressed, purified within ScElongator; not shown: Twin-Strep-tag, C-terminal, kept
T2 sequence (looked up): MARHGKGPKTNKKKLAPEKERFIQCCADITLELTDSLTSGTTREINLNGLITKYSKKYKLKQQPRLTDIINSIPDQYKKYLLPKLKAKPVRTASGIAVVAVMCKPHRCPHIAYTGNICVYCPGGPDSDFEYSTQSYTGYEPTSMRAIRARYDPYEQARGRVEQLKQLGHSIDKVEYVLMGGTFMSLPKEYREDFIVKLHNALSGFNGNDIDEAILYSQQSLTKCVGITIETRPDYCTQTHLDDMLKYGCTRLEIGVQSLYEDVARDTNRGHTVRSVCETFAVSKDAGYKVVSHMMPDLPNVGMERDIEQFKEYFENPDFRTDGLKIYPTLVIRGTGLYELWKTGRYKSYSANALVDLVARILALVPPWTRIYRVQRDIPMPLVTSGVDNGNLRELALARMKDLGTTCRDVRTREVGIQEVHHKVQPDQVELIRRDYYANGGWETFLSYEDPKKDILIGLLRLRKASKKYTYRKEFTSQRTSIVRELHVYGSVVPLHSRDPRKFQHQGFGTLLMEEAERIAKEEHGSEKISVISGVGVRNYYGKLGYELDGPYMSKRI

B1: Saccharomyces cerevisiae Elp456 subcomplex (hetero-hexameric ring) (complex)
chain 1: MSFRKRGEILNDRGSGLRGPLLRGPPRTSSTPLRTGNRRAPGNVPLSDTTARLKKLNIADESKTKMGLDSSHVGVRPSPATSQPTTSTGSADLDSILGHMGLPLGNSVLVEEQSTTEFHSILGKLFAAQGIVHNRISDSSADKTRNGDTHVIVLSLNQMFAKELPGIYKGSRKQMKKNLISEEESKVTVQNLNETQRSTPSRYKDLKIAWKYKLADEKRLGSPDRDDIQQNSEYKDYNHQFDITTRLMPAPIASELTFIAPTQPVSTILSQIEQTIKRNDKKLIRIVIPSLLHPAMYPPKMFESSEIIGLMHGVRSLVKKYYERVVLFASISIDIITPPLLVLLRNMFDSVINLEPFNQEMTEFLERVYKSQPGKIQHGLVHILKLPVFTDRGEMRVLKSEWAFKNGRKKFEIEQWGIPVDDAEGSAASEQSHSHSHSDEISHNIPAKKTKISLDY
chain 2: MASSSHNPVILLKRILSLTESSPFILCLDSIAQTSYKLIQEFVHQSKSKGNEYPIVYISFETVNKPSYCTQFIDATQMDFVHLVKQIISYLPAATATQAKKHMVIIDSLNYISTEYITRFLSEIASPHCTMVATYHKDIKDENRTVIPDWNNNYPDKLTLLQFMATTIVDIDVVLTGTLDTEEVSELLNEFRIPRGLNNDIFQLRLVNKRKSGRSLEYDFIVNSNTHEYELLSTTKQEEESSSNGLETPEMLQGLTTFNLGTSNKQKLAKDQVALPFLEAQSFGQGGAIVYEYEKDDDYDEEDPYEDPF
chain 3: MGSVQRQDLVLFSDQSVLPAHFFQDSNSHNLFFITHQSCTQPLWMINALVETHVLGSPSSLNESSSSMLPSSTRSHAVLASFIHEQNYFTNSLNKLKIPSNNYNVLDFLSDFIVNNIHNKPRDKILSDVLAKFSAAIQNNPTDTIVIIEQPELLLSLVSGLTCSELNNKFITPLLRQCKVLIIVSNSDIFNIDEYDASVHSSNLQNFYKSSFIKSMINLNLNPLKTGFAKDVTGSLHVCRGGAPIATSNTSLHVVENEYLYLNEKESTKLFYR
notes: Elp4, S. cerevisiae, full-length ORF; Elp5, S. cerevisiae, full-length ORF; Elp6, S. cerevisiae, full-length ORF; Symmetric dimer of trimers; also called ScElp456; yeast Elp456; source: S. cerevisiae DS1-2b, overexpressed, purified with ScElongator (IgG Sepharose with TEV elution, StrepTrap, Superose 6); free rings seen in one data set; not shown: protein A (Staphylococcus aureus), C-terminal, …
B2: Saccharomyces cerevisiae Elp4 (natural protein, UniProt Q02884 1-456, looked up)
chain: B1 chain 1
notes: Elp4, S. cerevisiae, full-length ORF; also called ScElp4; source: S. cerevisiae DS1-2b, overexpressed, purified within ScElongator
B3: Saccharomyces cerevisiae Elp5 (natural protein, UniProt P38874 1-309, looked up)
chain: B1 chain 2
notes: Elp5, S. cerevisiae, full-length ORF; also called ScElp5; source: S. cerevisiae DS1-2b, overexpressed, purified within ScElongator
B4: Saccharomyces cerevisiae Elp6 (natural protein, UniProt Q04868 1-273, looked up)
chain: B1 chain 3
notes: Elp6, S. cerevisiae, full-length ORF; also called ScElp6; source: S. cerevisiae DS1-2b, overexpressed, purified within ScElongator; not shown: protein A (Staphylococcus aureus), C-terminal, cleaved

How the values were obtained:
Conditions in all cases: both partners purified
[1] = biological target: T3, Saccharomyces cerevisiae Elp123 subcomplex (Saccharomyces cerevisiae, UniProt Q06706 1-1349; P42935 1-788; Q02908 1-557); experiment: cryo-EM structure; ScElongator purified from overexpressing yeast, native sample (4.35 Å) and BS3-stabilised sample (6.6 Å; two-lobed map 17.2 Å); sample buffer 20 mM HEPES pH 7.5, 100 mM NaCl, 3 mM DTT
T3 construct: Elp1, S. cerevisiae, full-length ORF; Elp2, S. cerevisiae, full-length ORF; Elp3, S. cerevisiae, full-length ORF; also called ScElp123; yeast Elp123; not shown: Twin-Strep-tag, C-terminal, kept; copies: 2 + 2 + 2

[2] = biological target: T1, Saccharomyces cerevisiae Elp1; experiment: as above
[3] = biological target: T2, Saccharomyces cerevisiae Elp3; experiment: as above
[4] = biological target: B2; experiment: cryo-EM structure; free full-length ScElp456 rings found in one data set, 3.7 Å
[5] = biological target: B3; experiment: as above

T3 sequence (P42935 whole entry, one chain of several): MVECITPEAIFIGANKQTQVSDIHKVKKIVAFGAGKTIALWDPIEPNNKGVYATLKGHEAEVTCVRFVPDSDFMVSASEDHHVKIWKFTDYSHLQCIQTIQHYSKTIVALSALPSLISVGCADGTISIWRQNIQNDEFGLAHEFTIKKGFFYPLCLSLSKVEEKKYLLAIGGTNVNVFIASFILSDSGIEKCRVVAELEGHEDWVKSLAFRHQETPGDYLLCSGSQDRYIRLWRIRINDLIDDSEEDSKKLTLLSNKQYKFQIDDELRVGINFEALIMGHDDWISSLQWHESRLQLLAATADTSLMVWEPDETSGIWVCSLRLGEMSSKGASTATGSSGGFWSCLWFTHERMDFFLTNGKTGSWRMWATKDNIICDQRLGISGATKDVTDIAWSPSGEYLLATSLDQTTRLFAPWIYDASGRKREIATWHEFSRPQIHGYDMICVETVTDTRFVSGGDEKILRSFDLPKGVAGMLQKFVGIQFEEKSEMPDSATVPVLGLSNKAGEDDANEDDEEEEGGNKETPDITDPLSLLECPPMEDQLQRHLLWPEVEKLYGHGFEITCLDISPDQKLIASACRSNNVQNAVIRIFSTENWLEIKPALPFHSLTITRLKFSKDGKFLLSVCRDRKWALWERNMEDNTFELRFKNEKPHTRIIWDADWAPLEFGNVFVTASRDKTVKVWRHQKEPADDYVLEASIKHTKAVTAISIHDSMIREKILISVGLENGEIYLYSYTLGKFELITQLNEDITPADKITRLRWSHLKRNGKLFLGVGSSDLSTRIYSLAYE

Binder | binding result [1] | binding result [2] | binding result [3] | binding result [4] | binding result [5]
B1 | binds |  |  |  | 
B2 |  | binds | binds |  | 
B3 |  | binds |  | binds | 
B4 |  |  | binds | binds | binds

Source: article PMC10018365, “Cryo-EM structure of the fully assembled Elongator complex” (Nucleic Acids Research, 2023)
